Source: the supplement of paper PMC9170038

Test system: MS2 coat protein
Assay: apparent KD of MS2 coat protein; higher = weaker reporter binding
Conditions: Eterna round: R107
How it was run: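 Titration buffer: 100 mM Tris-HCl pH 7.5, 80 mM KCl, 4 mM MgCl2, without or with constant ligand. Designed RNA switches transcribed on-chip from Illumina sequencing clusters received SNAP-549-labelled MS2 coat protein in twofold steps from 0.7 or 1.5 nM to 3 µM. Apparent KD is the median per design of fits to normalised cluster binding curves.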

[1] = input ligand: theophylline 20 uM
[2] = input ligand: tryptophan 2.4 mM
[3] = input ligand: theophylline 2 mM

Sequence	apparent KD of MS2 coat protein (input ligand: arginine 13.2 mM) [nM]	apparent KD of MS2 coat protein [1] [nM]	apparent KD of MS2 coat protein [2] [nM]	apparent KD of MS2 coat protein (input ligand: none) [nM]	apparent KD of MS2 coat protein [3] [nM]
CACUAUGAGGUCGAUACCAGUACUGAGUUGUACAUGAGGAUCACCCAUGUAAAUGUUCGCUACCCUUGGCAGCGAUAACAUUGCA [theeternabot_sameState_MS2_Theo_B_34]	73.8	331	246		
CGCCGCGCGGGAAGGAGCGCGAUUACAUAACAUGAGGAUCACCCAUGUAAGAAAUUAUUCAUGCAGGUAGGUCGCCCGCGCGGCG [Same State Arginine B GF 5]	58.8	28.4	22.8	22.3	22.8
AGCAGUACAACAGAUACCAGACUUUUAAUGCCUCUAAUUACAUGAGGAUCACCCAUGUUUGUCCCUUGGCAGCUGUUGUACUGCA [JR_ExcTheophyB_Sub010]	72.4	200	124		
AGAGUCUAGUCGGCCGCCACUCAUGUCCAAUGGACAUGAGGAUCACCCAUGUACCGAAGGUACAUGAGGACCGGGACUGGACUCA [Omei Tryp B SS C v6]	43.6	496			330
AUACAUGAGGAUCACCCAUGUCAUUCAGAAGGAGCGUCAUUAUUGACAGGUAGGUCGCUGAUAAAAUUUUUAUACAUUAUGUUUA [JR_SSArginiA_Sub014]	31.9	20.9	17.3	16.3	18.1
UUCUUUAAGUCGGCCGCCACUGAAACAUGAGGAUCACCCAUGUAAAUUUGGGAGUAGGUAUAUUACAGGACCGGGACUAUAGUAA [JR_ExcTryptoB_Sub021]	29.2	31.2			27.3
UUUAAUUUAAUAGAUACCAGCUAAUAAUAAUCCCGGAGGACAUGAGGAUCACCCAUGUGGAGCCCUUGGCAGCUAAAAUAAAUUU [Exclusion - Theophylline B]	20.1	63.7	28.9	32.9	22.4
AGUGAUGACCGAAGGAGCGCGGGAAACAUGAGGAUCACCCAUGUACUCCUCAGUGUUAUAACGCAGGUAGGUCGCGGUUAUGGCU [X-ArgiB-ms2@26]	148	296	279	180	328
UGUAUGGACUGAAGGAGCGGGUAAUAAACUUGAGGAUCACCCAGGUAAUAGGCGAAAGCCACCCAGGUAGGUCGCAGUCCAUACU	32.7	38.9	25.6	28.5	23
AAAUAAAUCACAUGAGGAUCACCCAUGGAUACCAGGCCUGGAAACAGCCCUUGGCAGCCACAUGAGGAUCACCCAUGUGCUAAAU [MAT - Exclusion Theophlline A - Mod of Eli - D2]	98.4	207	140		
CGUAGGAUCGUGGAUACCAGUACCGCCCACGACAUGAGGAUCACCCAUGUAGGUAAUCUUUACCCUUGGCAGCCAUUUUUUUCUG [theeternabot_sameState_MS2_Theo_B_14]	41	72.6	45.2		
CUCAUCCACGCGGCCGCCACUAUAUUGUGGUGUGAGUGUGACGUAUUACAUGAGGAUCACCCAUGUAGGACCGGGCGUGGAUGAG [#06 Exclusion Tryptophan B]	30.9	51.3			50.2
UCGCUCUGGGUGGGAUCCGGAGAUGUGGAAGGAGCGCUGGAAACAGCAGGUAGGUCGCCAACGGACAUGAGGAUCACCCAUGUAC [Same State - Arginine A (Freestyle 18)]	64.9	37.4	59	26.5	37.7
UGUCGUAGACAUGAGGAUCACCCAUGUCCACGAGGACCGGUACGGCCGCCACUCGGGAUAUAAACCGUUACGGGUGGGUGGUGUU [Maarlainin]	16	26			21.2
CGCAACCAACAUGAGGAUCACCCAUGUGAAGGAGCGCCGAAUAAGGCAGGUAGGUCGCACAUGAAUAAAUCAUGAAGGAAGCGAA [XArg-A 12 NuPack]	20.5	43.8	31.5	36.8	51.2
GCUGGGUGCGCAAGGACCUGGCGUUGCGAUACCAGCACGGUAACGUGCCCUUGGCAGCGCACAUGAGGAUCACCCAUGUGGUGUG [#1 Exclusion - Theophylline A Attempt #20 (HarryS)]	96.8	333	162	230	301
GGUGAUCCGUAUCACCGGAUCACCGGUGAUACCAGCAUCGAAAGAUGCCCUUGGCAGCACCAACAUGAGGAUCACCCAUGUAAUA [(M)'-(T)'-(M)''-(T1)-(T2)-(M1)-(M2)_Design6b]	69.6	62.4	143		
ACAUGAGGAUCACCCAUGUUCCUCAUUGAUACCAGUGAAUUUAGACGCCCUUGGCAGCGAGUUUAAGAAGAAGAAGUUUUUUUUU [6.C]	124	819	875		
UCGGUUUUCUACAUGAGGAUCACCCAUGUCCGAGGACCGGUACGGCCGCCACUCGCAAUCAAACAGACGUGGGCCAAAUUUGCGU [Isinso]	11.8	14.8			11.6

Sequence	apparent KD of MS2 coat protein (input ligand: arginine 13.2 mM) [nM]	apparent KD of MS2 coat protein [1] [nM]	apparent KD of MS2 coat protein [2] [nM]	apparent KD of MS2 coat protein (input ligand: none) [nM]	apparent KD of MS2 coat protein [3] [nM]
CCGCCCUACCGCGAUACCAGUACGGCAGUUAACAUGAGGAUCACCCAUGUGCAAACAUAAUACCCUUGGCAGCGCCUGAAUCCAU [theeternabot_sameState_MS2_Theo_B_12]	15.7	29.2	15.6		
UGUAUGGACUGAAGGAGCGGGUUGAUACCAUGAGGAUCACCCAUGGAAAAGGCGAAAGCCGCCCAGGUAGGUCGCAGUCCAUACU	14	19.7	16.6	12.9	18.4
ACAUGAACAUGAGGAUCACCCAUGUGGGAUACCAGCGUGUAUGAGCGCCCUUGGCAGCUCAUGACAUGAGGAUCACCCAUGUUGG [Exclusion Theophylline A 4]	154	242	224		
AGGUGCGGCACGGCCGCCACUGCGGUGGUGUGACAUGAGGAUCACCCAUGUUGUCAUGCGGCCCUUAGGACCGGGUGGCGUGCCU [#1 Exclusion - Tryptophan B Attempt #16 (HarryS)]	27.9	64.4			68.9
AGUUAAAUAUGUUAAUAACUAUUUACUGAAGGAGCGUGUUUUUACACAGGUAGGUCGCAGUGACAUGAGGAUCACCCAUGUAGUA [JR_SSArginiA_Sub012]	31.3	49.7	33.4	37.5	43.5
GCUGUACCAUGAAGGAGCGUCAUGGAUUGCGAAUACACAUGAGGAUCACCCAUGUUUUUAUGACAGGUAGGUCGCAUGGUACAGC [#01 Same State - Arginine B]	17.8	24.5	17.1	14.5	19.2
AGAGAUGAACAUGAGGAUCACCCAUGUAAACGAGGACCGGUACGGCCGCCACUCGUGGGUGUAAUAGAAUAAUAAGAGAAUAAUA [Turkey 1]	24.4	92	75.5	63.2	59.6
GCAGUGGGUUAUAAGUAAUAGAAUUCUGAAGGAGCGUGAUGAAACACAGGUAGGUCGCAGGAACAUGAGGAUCACCCAUGUACGG [Same State Arginine A GF20]	61.4	51.6	50.3	58.7	37.6
UGGCGAGAAGGAAGGAGCGUCAGCUGAGUCACAUGAGGAUCACCCAUGUCGCACAUAGUGUGACAGGUAGGUCGCCUUCUGCCCU [Beinmain]	84.9	152	156	134	239
AGUACUCGAACGGAUACCAGCCGGACAUGAGGAUCACCCAUGUCCUACCAUUGUUCGGUUGGCCCUUGGCAGCCGUUCGUGUACA [Omei Theo B SS A v4]	125	366	591	930	26.7
UUUUUUUUGGGAAGGAGCGGGAACAUGUGGAUCUCCCAUGUACAUGAGGAUCACCCAUGUACCCAGGUAGGUCGCCCAUUUUUUU [Exclusion - Arginine B]	69.5	94.7	66.2	102	112
UUGUUGUUUGGAAGGAGCGUGGAUGAGUUAGAACAUGAGGAUCACCCAUGUUGGAUGAUACCACAGGUAGGUCGCCGGGUGGUGG [11.Z]	229	48.8	21.4	16.6	24.5
AAUCAUGGAAACAUGACAUGAGGGUUGCUCCGAGGACCGGUACGGCCGCCACUCGCGAGGAGGCGGACAUGAGGAUCACCCAUGU [#05 Tryptophan A Same State]	40.3	280	68.2	252	328
AUGUCAUUGGUGCAGCUGUUAAAUGGCGAUACCAGCGUGGAAACACGCCCUUGGCAGCGCCAAAACAUGAGGAUCACCCAUGUUA [Zlin]	23	54.6	27.1		
AAUAAACAUGAGGAUCACCCAUGUAGGGUGCGAGGACCGGUACGGCCGCCACUCGGGUGAAAACAUGAAAAUCACCCAUGUAAAA [Mat - Exclusion - Trytophan A - D24]	113	192	232	125	206
UUAAUCUUGGAUGAAAACAUUUAAGCAGAAGGAGCGUGAUAAAACACAGGUAGGUCGCUGAAGGGAACAUGAGGAUCACCCAUGU [AstrosSSArgA#15]	22.5	28.8	32.9	38	31.7
ACGUUGUAGUCGGCCGCCACUGUUUUCAUGUUCAACAUGAGGAUCACCCAUGUACCUUUUUUUAUCAGGACCGGGACGUAUUCGA [JR_SSTryptoB_Sub003]	46.5	102			96.8
UCGUAGCUAGGAAGGAGCGCAUACUUCACAUGAGGAUCACCCAUGUCGAGACGUGAGUCAGUGCAGGUAGGUCGCCUAGCUAUGA [Same State - Arginine B (Freestyle 26)]	18.2	22.3	19.3	17.6	21.5
ACAUGAGGAUCACCCAUGUACAUAAGGGAAGGAGCGCGGUGAGACGCAGGUAGGUCGCCCAUAAUAACAAACAUUAAAUUCAUGU [#25 Same State - Arginine A]	17.2	25.5	19.1	17.7	21.3
